# Results from PMC4823748, “Production of FAME biodiesel in E. coli by direct methylation with an insect enzyme” (Scientific Reports, 2016).
# B1: DmJHAMT (Drosophila melanogaster) (protein)
# chain: MNQASLYQHANQVQRHDAKLILDEFASTMQWRSDGEDALLDVGSGSGNVLMDFVKPLLPIRGQLVGTDISSQMVHYASKHYQREERTRFQVLDIGCERLPEELSGRFDHVTSFYCLHWVQNLKGALGNIYNLLKPEGGDCLLAFLASNPVYEVYKILKTNDKWSTFMQDVENFISPLHYSLSPGEEFSQLLNDVGFVQHNVEIRNEVFVYEGVRTLKDNVKAICPFLERMPADLHEQFLDDFIDIVISMNLQQGENNEDQKFLSPYKLVVAYARKTPEFVNNVFLEPTHQNLVKGIN
# notes: primers encode N-terminus MNQASLYQH and C-terminus QNLVKGIN-stop
# Substrate: CCCCCCCCCCCC(=O)O
# Assay: MTAN/LuxS-coupled DTNB colorimetric methyltransferase assay
# Assay type: biochemical, Drosophila melanogaster
# Conditions: 500 μM SAM, 50 mM potassium phosphate pH 8.0, 30 °C, 3 μM enzyme, 5–200 μM lauric acid
protein,measurement,value
B1,Km,59 µM
same,kcat,0.0025 s⁻¹
